Results on two sequences are retold here after article PMC4380446.

Data set [1] has as its system haemagglutinin on whole H9N2 virus (Influenza A virus H9N2 (avian; strain not given in material)). As to the kind of experiment: competition ELAA.
Data set [2] has the same test system. Nature of the data set: capillary electrophoresis.
Data set [3] deals with purified haemagglutinin H9 (H9-HA) (Influenza A virus H9N2 (avian; strain not given in material)). As to the kind of experiment: capillary electrophoresis.

pKd: −log10 of the molar value.

What is called pKd is −log10 of the Kd, conventionally taken in molar units. Low readings indicate a high Kd, high ones a low Kd. Sequence “GCTGCAATACTCATGGACAGCCTCCTGGGGTCAGGCTCAGACATTGATAAAGCGACATCGGTCTGGAGTACGACCCTGAA [A9]” showed an inhibition of binding in data set [1] of 76.3 % inhibition. In addition, the pKd in data set [2] is 7.37; in data set [3], 7.34.
“GCTGCAATACTCATGGACAGCGGGGGTCTCGCCCTCCCGGCGGCCTCGGCGAGCGTCGGCGTCTGGAGTACGACCCTGAA [A6]”: the pKd in data set [3] was 7.69.
